Amyloid nucleation score data for 139 substances are collected here from the supplement of paper PMC12042874.

± gives the uncertainty stated by the source.

A short description of the data set: amyloid nucleation score (Sup35N fusion, yeast selection) (log enrichment); library NNK1; higher = more nucleation; inactive = no reads after selection. The method, boiled down:
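Peptides of 20 random codons, each fused to Sup35N, were expressed in psi-negative yeast. Cells were induced with 100 μM copper sulfate for 24 hours and grown 7 days at 30°C on medium lacking adenine and uracil, and plasmid inserts before and after selection were Illumina-sequenced. Nucleation scores are DiMSum log enrichments of output over input reads, centred on the mode score of non-aggregating sequences, and sequences under 100 input reads were excluded.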

For the substance INLNRHGSLE, the amyloid nucleation score came to 1.6 ± 0.39.

Substance SMESLTVEAMNSVEAFPVTY registered an amyloid nucleation score of -1.22 ± 0.73.

With SGAYLNKGFSVLAFYIIIVK, the amyloid nucleation score was found to be 1.81 ± 0.26.

On to LKSIPNCFRHFYVNTFS, for which the amyloid nucleation score was -0.923 ± 0.49.

For the substance ALYPPAGAGLRECRARSLSA, the amyloid nucleation score was 0.341 ± 0.5.

Take SNFTEVLLSECFLVWLMFTH: the amyloid nucleation score came out at 0.089 ± 0.87.

As to ALLVPGILW, the amyloid nucleation score amounted to 3.34 ± 0.078.

For the substance LFIYDLQLRHDYHQGYELES, the amyloid nucleation score was determined as 0.544 ± 0.9.

Turning to GSCVWFSGNRVPTFWWSGDS, the amyloid nucleation score was -0.046 ± 0.31.

Turning to GSRYLGTPFRDIMLHVAIRW, the amyloid nucleation score was 1.08 ± 0.57.

On to DENDSGYELYFLGAGHTGSY, for which the amyloid nucleation score was -0.157 ± 0.39.

HYTLIESSNRSANNEPQVTH displayed an amyloid nucleation score of 0.353 ± 0.88.

Regarding RSLALEKLCSWSV, the amyloid nucleation score was -1.38 ± 2.7.

EMWRYRRVGIPRLA gave an amyloid nucleation score of 0.358 ± 0.92.

The substance GFCNYMSFCFHIDASE registered an amyloid nucleation score of 7.587 ± 0.056.

FVLADYVGAARVRGTTLFAE came in with an amyloid nucleation score of 0.406 ± 0.53.

KHICTAFRSVEFAEGIR: the amyloid nucleation score was 0.658 ± 0.46.

MFVSDQINYCMSTVAVH yielded an amyloid nucleation score of 0.201 ± 0.27.

Regarding PFLNVEHFVMVDRFIVPDI, the amyloid nucleation score was found to be 0.559 ± 0.79.

GVWDGKRSYGSLQSWAFVPE had an amyloid nucleation score of -0.138 ± 0.41.

Substance MNYRQLL showed an amyloid nucleation score of 0.177 ± 0.7.

Substance RSHQSQGMPSLFNLSLVLFY came in with an amyloid nucleation score of 6.489 ± 0.064.

TADFLERRDMKYLHM showed an amyloid nucleation score of -0.361 ± 1.7.

Substance GGELKARNKREGNQSSA registered an amyloid nucleation score of 0.058 ± 0.72.

With FICFYVVSYTIMSLLFDTLG, the amyloid nucleation score came out at 0.713 ± 0.92.

Take YPNYFSVRFSNWLASTKFQI: the amyloid nucleation score entry was “inactive”.

In the case of YTCCWTVG, the amyloid nucleation score was 4.18 ± 0.08.

In turn, IATFGVTMSNSWT had an amyloid nucleation score of 2.84 ± 0.13.

YNTDWPLHLTADVGVFY registered an amyloid nucleation score of -0.088 ± 1.1.

FLSRFLMVRTRSAASVSAYE came in with an amyloid nucleation score of -0.204 ± 0.39.

The substance GTGLVAMVAT yielded an amyloid nucleation score of -1.24 ± 1.1.

For RSVRCVLLVAINRVMLG, the amyloid nucleation score worked out at 0.52 ± 0.67.

In turn, LNRRLGDVEPIYAGLTSQQS yielded an amyloid nucleation score of 0.313 ± 0.3.

For LYVTVGWSLWYGSFAVMVVC, the amyloid nucleation score stood at 0.026 ± 0.41.

For the substance DVCASGRKIVRFFPMSARAQ, the amyloid nucleation score result was “inactive”.

Regarding MCFSVG, the amyloid nucleation score was -0.148 ± 0.4.

Regarding FHKVLSMFMMIVLVVKTWTT, the amyloid nucleation score result is “inactive”.

Consider PDRRQSN, for which the amyloid nucleation score result is “inactive”.

On to ENTLRSYRLGHKVEWLMELG, for which the amyloid nucleation score was -0.363 ± 0.39.

As to GNTVRYVKRMYY, the amyloid nucleation score is -0.056 ± 0.5.

HVTKMNCPLCQVKLGNYPVY had an amyloid nucleation score of -0.546 ± 0.49.

YELDWWSLLQE came in with an amyloid nucleation score of 1.12 ± 0.4.

MEICNCKDYFKAYRRFSHGS came in with an amyloid nucleation score of 1.56 ± 0.27.

For the substance WPNNRVQFCSCGSRFSCLGS, the amyloid nucleation score stood at 0.933 ± 0.85.

On to WTCMKSFVMWQSLDFVHFIA, for which the amyloid nucleation score was 0.85 ± 0.98.

On to KVCFPY, for which the amyloid nucleation score is -1.03 ± 0.4.

With NGKWYLLVRGFLAWNKQRCP, the amyloid nucleation score was -1.03 ± 2.7.

In the case of KVHPYEMDENYNPSRCYSSS, the amyloid nucleation score is -0.049 ± 0.48.

As to WKYIMHLSRFYVFPCSTERG, the amyloid nucleation score is 0.112 ± 0.87.

In turn, NMNNGDMSSVVVVIRVFCLI had an amyloid nucleation score of 5.38 ± 0.093.

In turn, GLDLMSVRWGKTMAPSSLWW had an amyloid nucleation score of 4.63 ± 0.12.

The substance LCTFIVWKMPICPMWWGW yielded an amyloid nucleation score of 0.255 ± 0.2.

Substance PKLRKLVSFYVSYIPGGGYG yielded an amyloid nucleation score of -0.106 ± 0.93.

In turn, KITHLFFKSSYVIVKLLYVI displayed an amyloid nucleation score of 0.082 ± 0.51.

CIGTHRIRFNSLLYRDQPII gave an amyloid nucleation score of -0.15 ± 0.86.

VILSCSLLFCFNRSWGLGNE came in with an amyloid nucleation score of 7.04 ± 0.067.

As for RFVCLLIGVSQLPQLRCEYR, the amyloid nucleation score was -1.17 ± 0.47.

For LAFKGAITPSDFGLNNRYRF, the amyloid nucleation score was -0.037 ± 1.4.

The substance RFVWVMSYGPSTYILHVWFV came in with an amyloid nucleation score of 0.248 ± 0.39.

Consider CACVIRIFNLMVMWDILYWS, for which the amyloid nucleation score was 0.748 ± 1.2.

Substance CNFKIVSWVVNQVLFFSHFA displayed an amyloid nucleation score of -1.37 ± 2.1.

Regarding VLCVSRRSAIYTWGSSLYCD, the amyloid nucleation score is -0.691 ± 1.4.

CSLVLAIRHATCQEVVVGSC came in with an amyloid nucleation score of 0.602 ± 0.6.

As for SLRILRSRS, the amyloid nucleation score result is “inactive”.

YQFGLEKSMLGRGY had an amyloid nucleation score of 0.36 ± 0.41.

Substance SVFWAWCVADHTIIDQKSSL registered an amyloid nucleation score of 0.391 ± 0.48.

GAYCFSVCNHREL had an amyloid nucleation score of -0.365 ± 1.1.

NNFFITVHSLLIRSSTHMR yielded an amyloid nucleation score of 0.015 ± 0.37.

The substance TYLVILR gave an amyloid nucleation score of 0.33 ± 0.39.

For the substance GLGMSRPYGSAPTRPDQNKI, the amyloid nucleation score is 0.275 ± 1.1.

With RPSWFLTADDRVWFSSTGRG, the amyloid nucleation score came out at 0.053 ± 1.4.

VESTCTNMRCYLGWFIPPF gave an amyloid nucleation score of 0.387 ± 0.2.

LYSNVRRFVWRGTWMWSRRC had an amyloid nucleation score of 0.969 ± 0.61.

In turn, GLSGYSRVFMTADDVGVRVW displayed an amyloid nucleation score of -1.18 ± 1.5.

TMLMESTIRRRC returned an amyloid nucleation score of -0.021 ± 0.54.

Consider NKQEQHFF, for which the amyloid nucleation score was 0.052 ± 0.4.

VDSHVYRNT gave an amyloid nucleation score of -0.203 ± 1.1.

As to RSCKLWY, the amyloid nucleation score was -0.204 ± 0.85.

The substance WSLDSNKSWSCFKCLCFYCG returned an amyloid nucleation score of 6.223 ± 0.054.

The substance FREVMTGSNYRPTC showed an amyloid nucleation score of 0.158 ± 0.64.

For the substance GSTDGKGVTQRNYVNSILYV, the amyloid nucleation score amounted to 0.472 ± 0.78.

LGRFYTTCT came in with an amyloid nucleation score of -0.981 ± 1.1.

With HFSFLSVDKRHWAFGPLCRK, the amyloid nucleation score was 7.358 ± 0.073.

As to SVRVMVLFWIKHCRLLWGRH, the amyloid nucleation score was -0.405 ± 1.7.

The substance YTLFWNVEGNLWQTPSVCNL gave an amyloid nucleation score of 0.141 ± 0.95.

In turn, ALNSQSGFKFERSMYLLVIG registered an amyloid nucleation score of 1.17 ± 0.43.

As for LLHHYGGYELVSDWTIAKF, the amyloid nucleation score worked out at 0.364 ± 0.31.

In the case of ANSGTRIRFYICWFKSETTW, the amyloid nucleation score is 1.87 ± 0.1.

The substance KIDGRPVHIPRFRYDNDNKV had an amyloid nucleation score of -0.359 ± 0.47.

Substance LTMPMKHLRGSPDLRVNGII had an amyloid nucleation score of -0.502 ± 0.85.

IGSNK registered an amyloid nucleation score of -1.38 ± 0.86.

The substance SALLVMPRVAVSSTMVGKAT displayed an amyloid nucleation score of 0.938 ± 0.45.

Turning to FHGLSGMRYWTRFCMWSPAC, the amyloid nucleation score worked out at 1.36 ± 0.66.

The substance NNCLWLLGPRFPCVIMLVPA displayed an amyloid nucleation score of 2.18 ± 0.14.

Substance ALCVWQRLSRLLLDTPWHVR displayed an amyloid nucleation score of 0.806 ± 0.69.

Take NFYMGETDGACLCASMRDPQ: the amyloid nucleation score was found to be 2.62 ± 0.14.

As to SGMFYILPTSPGYAHEVPRR, the amyloid nucleation score was 0.393 ± 0.35.

For the substance TSRYVFRT, the amyloid nucleation score worked out at 0.925 ± 0.58.

In turn, MVAMVNT displayed an amyloid nucleation score of -0.087 ± 0.28.

Substance MAKTFRLGGLDCHLNYVVWC gave an amyloid nucleation score of 0.113 ± 0.61.

In the case of SFMAVSKGFMTIISSYYLC, the amyloid nucleation score is -0.662 ± 0.32.

DVAYRGSGYGFSYFYFGMFS: the amyloid nucleation score came to 0.547 ± 0.5.

As to VLMCDGFHALRKL, the amyloid nucleation score was determined as 1.97 ± 0.36.

As to LASGRRPSQPGVRRVAKTTG, the amyloid nucleation score was determined as 0.392 ± 0.34.

In turn, LLLGYVKSSLPIVGYSRMEG showed an amyloid nucleation score of 0.548 ± 0.35.

The substance YSNWGHVSRWFLRFIVVFFI registered an amyloid nucleation score of 0.459 ± 0.64.

On to PLTKVFV, for which the amyloid nucleation score was 0.167 ± 0.82.

NYLHFSRRLALWRC: the amyloid nucleation score entry is “inactive”.

Substance FLNLAFAVSRLGLCMWYVAF came in with an amyloid nucleation score of 0.319 ± 0.87.

In turn, YHWILKSCLWMVWSSVYLPI showed an amyloid nucleation score of -0.663 ± 1.7.

In turn, MHNIASC displayed an amyloid nucleation score of 0.629 ± 0.48.

DIRVLTPLRITFHLKAQGLL: the amyloid nucleation score is -0.266 ± 1.4.

Consider TFIKNVTNRVHYGNALTHLG, for which the amyloid nucleation score is -0.204 ± 0.66.

VRYVNRLKAHALDPKLKTL had an amyloid nucleation score of -0.18 ± 0.62.

Take IVGKQSVLYYDSVFVTWMYK: the amyloid nucleation score was -0.509 ± 0.3.

YGTRVFIGSIRYFRTEEAKI had an amyloid nucleation score of 0.35 ± 0.72.

As for TFSHNIIRSCLTKESVSFP, the amyloid nucleation score result was “inactive”.

Turning to EYFLSQYRKFTGYFVVITAT, the amyloid nucleation score came to 1.47 ± 0.76.

As for FLFRRYCAEEGLVWMKIVDT, the amyloid nucleation score was 0.864 ± 0.53.

Regarding FSIAASASTLFDGFVIWRF, the amyloid nucleation score was determined as 0.027 ± 0.5.

Substance GCTLLESCVYGKSVRSYHQW displayed an amyloid nucleation score of 0.253 ± 0.52.

RINLYIMFNLLDSGVDLNS displayed an amyloid nucleation score of 6.45 ± 0.071.

With SSETCTK, the amyloid nucleation score was -0.024 ± 0.55.

Consider DNGLGKCSMQPEWHRAWGAR, for which the amyloid nucleation score worked out at 2.06 ± 0.13.

In turn, VAPQGNPMWSKDLL gave an amyloid nucleation score of 1.8 ± 0.18.

As for GDNMDEEARWRLPVRFDRAS, the amyloid nucleation score is -0.013 ± 1.2.

SPVRIYTSRSIMRFNVRKPT: the amyloid nucleation score is -0.306 ± 0.9.

Substance LRVHDHDRMSDKMRYCNPFC displayed an amyloid nucleation score of 1.76 ± 0.42.

Turning to NRIVADSESYCTSCLAVCAH, the amyloid nucleation score amounted to 0.177 ± 0.3.

Regarding LMLGKLWFPGMCYESKWELG, the amyloid nucleation score was -0.181 ± 1.

The substance VGDWFSLVENWVVWSFSLIC yielded an amyloid nucleation score of -1.89 ± 2.1.

As to PPLVHSAHYVMKILKSCN, the amyloid nucleation score was -1.5 ± 2.7.

Consider RNQKGIL, for which the amyloid nucleation score is -0.042 ± 0.23.

With FTSPLKNHHLFGFAS, the amyloid nucleation score is -0.345 ± 0.6.

Regarding VIIKTRLELYKWRTMISSND, the amyloid nucleation score is -0.454 ± 0.63.

FLSEE displayed an amyloid nucleation score of -0.584 ± 0.44.

Consider TSFFADYVHTIKLLAPLSVG, for which the amyloid nucleation score result is “inactive”.

Consider LMKYWYDVHRNESGITSNNI, for which the amyloid nucleation score was -1.26 ± 0.42.

KVDLLA gave an amyloid nucleation score of -0.13 ± 0.56.
